From patent US20200255519A1 (University of California, published 2020)

How the values were obtained:
[1] = molecular target: T1, BCL-xL/ABT-737 complex: biotinylated BCL-xL (residues 2-215) in the presence of 1 µM ABT-737 (human, UniProt Q07817 2-215, biotin on the N-terminal AviTag; small molecule ABT-737 bound non-covalently); assay: ELISA, biotinylated BCL-xL captured on NeutrAvidin, Fab titrated with 1 µM ABT-737, anti-Fab-HRP detection [continued]
T1 construct: Same protein as m1; not shown: N-terminal tags (pMCSG7 vector tag used for Ni-NTA, AviTag, TEV cut site)
T1 sequence (Q07817 2-215, one chain of several): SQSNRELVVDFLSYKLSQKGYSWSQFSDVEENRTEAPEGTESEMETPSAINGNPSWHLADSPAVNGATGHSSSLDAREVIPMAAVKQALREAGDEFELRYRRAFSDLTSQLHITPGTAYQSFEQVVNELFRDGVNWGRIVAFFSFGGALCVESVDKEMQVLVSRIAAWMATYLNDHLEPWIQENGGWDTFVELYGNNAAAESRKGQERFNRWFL

[2] = molecular target: T2, biotinylated C-terminally truncated BCL-xL (residues 2-215), no ligand (DMSO vehicle) (human, UniProt Q07817 2-215, biotin on the N-terminal AviTag); assay: ELISA, biotinylated BCL-xL captured on NeutrAvidin, Fab titrated with 0.05% DMSO (no ABT-737), anti-Fab-HRP detection [continued]
T2 construct: also called apo BCL-xL; not shown: N-terminal tags (pMCSG7 vector tag used for Ni-NTA, AviTag, TEV cut site)
T2 sequence (Q07817 2-215): as the sequence (Q07817 2-215, one chain of several) above

[3] = molecular target: T3, BCL-xL/Bak-peptide complex: biotinylated BCL-xL (residues 2-215) in the presence of 5 µM Bak peptide (human, UniProt Q07817 2-215, biotin on the N-terminal AviTag); assay: biolayer interferometry, immobilized BCL-xL, 100 nM Fab with 5 µM Bak peptide
T3 construct: Bak peptide bought from Anaspec (AS-61616); not shown: N-terminal tags (pMCSG7 vector tag used for Ni-NTA, AviTag, TEV cut site)
T3 sequence (Q07817 2-215, one chain of several): as above

[4] = molecular target: biotinylated C-terminally truncated BCL-xL (residues 2-215), no ligand (DMSO vehicle) (human) (UniProt Q07817); assay: BLI (Octet), biotinylated BCL-xL on streptavidin sensor, Fab as analyte, no ABT-737
Chain of biotinylated C-terminally truncated BCL-xL (residues 2-215), no ligand (DMSO vehicle) (human) (Q07817 2-215): as the sequence (Q07817 2-215, one chain of several) above

[5] = molecular target: T1, BCL-xL/ABT-737 complex: biotinylated …; assay: ELISA, biotinylated BCL-xL captured on NeutrAvidin, Fab titrated with 1 µM ABT-737, anti-Fab-HRP detection

binding result [1] | binding result [2] | binding result [3] | Kd [4] [nM] | EC50 (read off the curve) [5] [nM] | Binder
binds | binds | – | – | – | Fab AZ7 (Fab, Purified Fab; graft limits inferred) heavy: EISEVQLVESGGGLVQPGGSLRLSCAASGFNLSSYSMHWVRQAPGKGLEWVASIYSYYGSTSYADSVKGRFTISADTSKNTAYLQMNSLRAEDTAVYYCARYSPWVYYPYYGWYSGMDYWGQGTLVTVSSASTKGPSVFPLAPSSKSTSGGTAALGCLVKDYFPEPVTVSWNSGALTSGVHTFPAVLQSSGLYSLSSVVTVPSSSLGTQTYICNVNHKPSNTKVDKKVEPKSCDKTHTGGSHHHHHH light: SDIQMTQSPSSLSASVGDRVTITCRASQSVSSAVAWYQQKPGKAPKLLIYSASSLYSGVPSRFSGSRSGTDFTLTISSLQPEDFATYYCQQSSYSLITFGQGTKVEIKRTVAAPSVFIFPPSDSQLKSGTASVVCLLNNFYPREAKVQWKVDNALQSGNSQESVTEQDSKDSTYSLSSTLTLSKADYEKHKVYACEVTHQGLSSPVTKSFNRGECGGSDYKDDDDK
binds | binds | – | – | – | Fab AZ5 (Fab, Purified Fab; graft limits inferred) heavy: EISEVQLVESGGGLVQPGGSLRLSCAASGFNLYYYYIHWVRQAPGKGLEWVASIYPSYGSTYYADSVKGRFTISADTSKNTAYLQMNSLRAEDTAVYYCARASVWFGWYVPSAMDYWGQGTLVTVSSASTKGPSVFPLAPSSKSTSGGTAALGCLVKDYFPEPVTVSWNSGALTSGVHTFPAVLQSSGLYSLSSVVTVPSSSLGTQTYICNVNHKPSNTKVDKKVEPKSCDKTHTGGSHHHHHH light: SDIQMTQSPSSLSASVGDRVTITCRASQSVSSAVAWYQQKPGKAPKLLIYSASSLYSGVPSRFSGSRSGTDFTLTISSLQPEDFATYYCQQWPGWYPITFGQGTKVEIKRTVAAPSVFIFPPSDSQLKSGTASVVCLLNNFYPREAKVQWKVDNALQSGNSQESVTEQDSKDSTYSLSSTLTLSKADYEKHKVYACEVTHQGLSSPVTKSFNRGECGGSDYKDDDDK
– | – | no binding (tested: 100 nM) | > 5000 | – | Fab AZ1 (Fab, Purified Fab from E. coli; The scaffold tags are kept) heavy: EISEVQLVESGGGLVQPGGSLRLSCAASGFNLSYSSMHWVRQAPGKGLEWVASISPYSSYTSYADSVKGRFTISADTSKNTAYLQMNSLRAEDTAVYYCARGWVGMDYWGQGTLVTVSSASTKGPSVFPLAPSSKSTSGGTAALGCLVKDYFPEPVTVSWNSGALTSGVHTFPAVLQSSGLYSLSSVVTVPSSSLGTQTYICNVNHKPSNTKVDKKVEPKSCDKTHTGGSHHHHHH light: SDIQMTQSPSSLSASVGDRVTITCRASQSVSSAVAWYQQKPGKAPKLLIYSASSLYSGVPSRFSGSRSGTDFTLTISSLQPEDFATYYCQQYYWGFPSLFTFGQGTKVEIKRTVAAPSVFIFPPSDSQLKSGTASVVCLLNNFYPREAKVQWKVDNALQSGNSQESVTEQDSKDSTYSLSSTLTLSKADYEKHKVYACEVTHQGLSSPVTKSFNRGECGGSDYKDDDDK

Continued, binder first:

Binder | binding result [1] | binding result [2] | binding result [3] | Kd [4] [nM] | EC50 (read off the curve) [5] [nM]
Fab AZ6 (Fab, Purified Fab; graft limits inferred) heavy: EISEVQLVESGGGLVQPGGSLRLSCAASGFNLSYSYIHWVRQAPGKGLEWVASIYSSSGSTYYADSVKGRFTISADTSKNTAYLQMNSLRAEDTAVYYCARGSHAHGWAWFWYGMDYWGQGTLVTVSSASTKGPSVFPLAPSSKSTSGGTAALGCLVKDYFPEPVTVSWNSGALTSGVHTFPAVLQSSGLYSLSSVVTVPSSSLGTQTYICNVNHKPSNTKVDKKVEPKSCDKTHTGGSHHHHHH light: SDIQMTQSPSSLSASVGDRVTITCRASQSVSSAVAWYQQKPGKAPKLLIYSASSLYSGVPSRFSGSRSGTDFTLTISSLQPEDFATYYCQQSSYSLITFGQGTKVEIKRTVAAPSVFIFPPSDSQLKSGTASVVCLLNNFYPREAKVQWKVDNALQSGNSQESVTEQDSKDSTYSLSSTLTLSKADYEKHKVYACEVTHQGLSSPVTKSFNRGECGGSDYKDDDDK | binds | binds | – | – | –
Fab AZ2 (Fab, Purified Fab; graft limits inferred) heavy: EISEVQLVESGGGLVQPGGSLRLSCAASGFNIYSYYMHWVRQAPGKGLEWVAYISPYYSYTSYADSVKGRFTISADTSKNTAYLQMNSLRAEDTAVYYCARGYPWYGMDYWGQGTLVTVSSASTKGPSVFPLAPSSKSTSGGTAALGCLVKDYFPEPVTVSWNSGALTSGVHTFPAVLQSSGLYSLSSVVTVPSSSLGTQTYICNVNHKPSNTKVDKKVEPKSCDKTHTGGSHHHHHH light: SDIQMTQSPSSLSASVGDRVTITCRASQSVSSAVAWYQQKPGKAPKLLIYSASSLYSGVPSRFSGSRSGTDFTLTISSLQPEDFATYYCQQVSWAYPYLITFGQGTKVEIKRTVAAPSVFIFPPSDSQLKSGTASVVCLLNNFYPREAKVQWKVDNALQSGNSQESVTEQDSKDSTYSLSSTLTLSKADYEKHKVYACEVTHQGLSSPVTKSFNRGECGGSDYKDDDDK | – | – | no binding (tested: 100 nM) | > 5000 | ~2
Fab AZ3 (Fab, Purified Fab; graft limits inferred) heavy: EISEVQLVESGGGLVQPGGSLRLSCAASGFNIYYSYMHWVRQAPGKGLEWVASISPYSSYTSYADSVKGRFTISADTSKNTAYLQMNSLRAEDTAVYYCARYGYSYYYYGALDYWGQGTLVTVSSASTKGPSVFPLAPSSKSTSGGTAALGCLVKDYFPEPVTVSWNSGALTSGVHTFPAVLQSSGLYSLSSVVTVPSSSLGTQTYICNVNHKPSNTKVDKKVEPKSCDKTHTGGSHHHHHH light: SDIQMTQSPSSLSASVGDRVTITCRASQSVSSAVAWYQQKPGKAPKLLIYSASSLYSGVPSRFSGSRSGTDFTLTISSLQPEDFATYYCQQGWSGPWLITFGQGTKVEIKRTVAAPSVFIFPPSDSQLKSGTASVVCLLNNFYPREAKVQWKVDNALQSGNSQESVTEQDSKDSTYSLSSTLTLSKADYEKHKVYACEVTHQGLSSPVTKSFNRGECGGSDYKDDDDK | – | – | no binding (tested: 100 nM) | > 5000 | ~7
